Molecular target: T1, recombinant Der p 2 (Dermatophagoides pteronyssinus …, UniProt P49278)
T1 chain: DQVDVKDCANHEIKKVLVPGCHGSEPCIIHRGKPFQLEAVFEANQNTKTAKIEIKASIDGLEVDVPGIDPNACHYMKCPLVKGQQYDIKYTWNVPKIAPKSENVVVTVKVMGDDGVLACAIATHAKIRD
Test: ELISA (coated rDer p 2, Siglec-Fc binding); Unmodified rDer p 2 does not bind; binding to Siglec-9-Fc requires chemical conjugation of α2-3 sialic acids to rDer p 2 (sia-rDer p 2)

B1: Siglec-9–hFc chimera (protein)
chain: QTSKLLTMQSSVTVQEGLCVHVPCSFSYPSHGWIYPGPVVHGYWFREGANTDQDAPVATNNPARAVWEETRDRFHLLGDPHTKNCTLSIRDARRSDAGRYFFRMEKGSIKWNYKHHRLSVNVTALTHRPNILIPGTLESGCPQNLTCSVPWACEQGTPPMISWIGTSVSPLDPSTTRSSVLTLIPQPQDHGTSLTCQVTFPGASVTTNKTVHLNVSYPPQNLTMTVFQGDGTVSTVLGNGSSLSLPEGQSLRLVCAVDAVDSNPPARLSLSWRGLTLCPSQPSNPGVLELPWVHLRDAAEFTCRAQNPLGSQQVYLNVSLQSKATSGVTQG
  binding result: no binding

Reference: paper PMC10770723 (2023)
